Test results: patent US20200057058A1 (MIT, published 2020)

Legend:
[1] = molecular target: monomeric streptavidin variant mSA2; test: fluorescent binding assay, labeled mSA2; signal three standard deviations above blank
Method: (§1) The binding function of rcSso7d.SA oligomer-PNIPAM thin films was measured using fluorescently-labeled monomeric streptavidin (mSA2) and fluorescently-labeled streptavidin (SA). Details for the expression, purification, and fluorescent labeling of mSA2 are provided below. Samples were prepared by serial dilution of SA or mSA2 in PBS (pH 7.4), human urine (diluted to 50% v/v in PBS, pH 7.4), or blood serum (obtained as the supernatant by centrifuging whole blood at 1500×g for 10 minutes, then diluted to 50% v/v in PBS, pH 7.4). 0.5 μL drops of solutions containing serially diluted fluorescent mSA2 and fluorescent SA samples in PBS (pH 7.4) were gently applied to the surface of each bioconjugate thin film. Films were incubated in a sealed chamber saturated with water vapor at room temperature to prevent to prevent drying of the applied fluorescent samples. After 1 hour, films were thoroughly rinsed with water for 10 seconds (a time determined to be sufficient to remove unbound molecules from the film, see FIG. 33, dried under filtered airflow, and immediately analyzed for fluorescent signal. Fluorescence microscopy images were acquired at 4× magnification using a Cy5 filter set and exposure time of 5000 ms on an Olympus IX-81 inverted fluorescence microscope with an AxioCam HRC CCD camera. Fluorescent intensity was calculated using ImageJ software⁶⁷ by determining the average fluorescent signal in a rectangular area of the fluorescent image free of defects and occupying no less than half of the full sample application area.
Oligomerization of rcSso7d.SA also brings about a decrease in biosensor limit of detection (LOD). […] While all thin films display improvements up to threefold in LOD over the monolayer, the trend in LOD with respect to degree of oligomerization is non-monotonic. The primary factor that is expected to affect LOD in the studied biosensors is number of binding sites, as more binding sites enable a greater number of analyte molecules to be captured and shifts analyte-receptor equilibrium in favor of binding events.

[2] = molecular target: monomeric streptavidin variant mSA2; test: fluorescent binding assay, labeled mSA2 in PBS on thin film; quadratic curve fit
Method: as §1
Binding assays were performed by adding serially diluted solutions of fluorescently-labeled mSA2 to thin films of each studied conjugate (FIG. 6A). To maintain consistent transport properties between samples, each oligomer was conjugated to the same previously-synthesized 25 kDa PNIPAM sample. Analyte bound to thin films was quantified using fluorescence microscopy, and binding curves were fit to the collected mean fluorescent intensity (MFI) data using the following equation: […]

[3] = molecular target: monomeric streptavidin variant mSA2; test: calculated from [P]T of the mSA2 binding curve fit and film thickness; parameters: Calculated Density (density of binding sites within a cross-sectional area of the film): unit not given here
Method: To determine the density of binding proteins within a single plane of each thin film, the concentration of accessible binding sites throughout the entire film—taken directly from the binding assay curve fits (Table 4)—was multiplied by the corresponding film thickness. When accounting for differences in film thickness, the density of oligomerized rcSso7d.SA proteins capable of binding mSA2 is found to increase […] with degree of oligomerization (Table 5). This calculated density decreases, though, between the 1×SP25k and 2×SP25k thin films, indicating a lower density of accessible binding sites in the protein domains of the oligomerized rcSso7d.SA conjugate film. The total number of predicted binding sites within each thin film assuming complete accessibility should be proportional to the […] of rcSso7d. SA in the conjugate with PNIPAM. Reasonable estimates for relative values of the predicted number of sites can thus be obtained by normalizing the weight fraction of rcSso7d. SA in each conjugate by the corresponding weight fraction in 1×SP25k. Comparing these predicted relative number of binding sites to the calculated values (FIG. 6C), all oligomeric rcSso7d.SA conjugates are found to contain fewer proteins capable of binding mSA2 than predicted. It is likely that this effect results from a combination of steric blocking of binding sites by bound mSA2 molecules as well as a lack of the free volume required to incorporate mSA2 molecules into the protein nanodomains at high degrees of binding. Despite the lower than expected binding capacity of the conjugate thin films, these biosensors contain approximately […] the quantity of accessible binding sites compared to rcSso7d.SA monolayers on a volumetric basis (Table 4). Recognizing that each plane (and a monolayer) of rcSso7d.SA proteins is roughly 1-2 nm thick,⁸⁰ the studied thin films can be determined to contain approximately 100 more planes of protein than a monolayer.

streptavidin [4] = molecular target: T1, streptavidin (UniProt P22629 37-163, limits assumed); test: fluorescent binding assay: Alexa Fluor 647-labeled streptavidin applied to the thin film; the sheet names the film 2xSP25k, the legend 2xSP17k
T1 construct: It was used without a stated label in the sandwich assays; also called SA
T1 sequence (P22629 37-163 limits assumed): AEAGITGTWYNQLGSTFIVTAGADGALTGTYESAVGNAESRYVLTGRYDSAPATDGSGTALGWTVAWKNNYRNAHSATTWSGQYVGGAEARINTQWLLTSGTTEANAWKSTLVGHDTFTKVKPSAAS
Method: as §1, with “Films were incubated in a sealed chamber saturated with water vapor at room temperature to prevent to prevent drying of the applied fluorescent samples.” left out

streptavidin [5] = molecular target: T1, streptavidin; test: fluorescent binding curve, labeled SA in 50% blood serum, 4 h; quadratic fit
streptavidin [6] = molecular target: T1, streptavidin; test: apparent Kd (Kd,app); fluorescent binding curve, labeled SA in 50% urine, 4 h; quadratic fit
streptavidin [7] = molecular target: T1, streptavidin; test: apparent Kd (Kd,app); fluorescent binding curve, labeled SA in 50% blood serum, 4 h; quadratic fit
[8] = molecular target: monomeric streptavidin variant mSA2; test: apparent Kd (Kd,app); fluorescent binding curve, labeled mSA2 in 50% blood serum, 4 h; quadratic fit
streptavidin [9] = molecular target: T1, streptavidin; test: fluorescent binding assay, labeled SA in 50% blood serum on thin film, 4 h exposure
streptavidin [10] = molecular target: T1, streptavidin; test: sandwich assay: SA in 50% blood serum, biotin-HRP/TMB detection
Method: (§2) Each well was submerged in 1 mL of 1% BSA in Milli-Q water, and the 12-well plate was incubated at 37° C. for 30 minutes. The wells were rinsed twice by adding 2 mL of Milli-Q water and gently shaking the well plate at 70 rpm for 5 minutes. 1 mL of streptavidin diluted in PBS, urine, or blood serum (prepared as described in the Fluorescent Assays section) containing 0.1% BSA was then added to each well, and the well plate was shaken at 70 rpm for 4 hours at room temperature. Wells were rinsed twice with 2 mL of Milli-Q water then twice with 2 mL of 0.1% BSA in Milli-Q water by shaking at 70 rpm for 5 minutes. After rinsing, wells were submerged in 1 mL of 200 ng/mL biotin-HRP in Milli-Q water containing 0.1% BSA, and the well plate was shaken at 70 rpm for 1 hour at room temperature. Wells were then rinsed with water and 0.1% BSA as described previously. 1 mL of solution from a Pierce TMB substrate kit (Thermo Fisher Scientific) was added to each well, and the well plate was shaken vigorously at 125 rpm for 15 minutes at room temperature. 1 mL of 2M H2SO4 was added to each well, and the absorbance at 450 nm was read using a Tecan Infinite M200 PRO plate reader.
(§3) The general procedure for this proof-of-concept experiment is diagrammed in FIG. 28. Films were first exposed to SA solutions and rinsed to remove unbound analyte. Taking advantage of the strong interaction between SA and biotin, thin films were then submerged in a solution of biotinylated horseradish peroxidase (biotin-HRP). Bound SA was detected colorimetrically through the HRP-mediated oxidation of 3,3′,5,5′-tetramethylbenzidine (TMB). Attempts to perform this assay using mSA2 as the analyte were unsuccessful, even when run on an rcSso7d.SA monolayer.

[11] = molecular target: monomeric streptavidin variant mSA2; test: apparent Kd (Kd,app); fluorescent binding curve, labeled mSA2 in 50% urine, 4 h; quadratic fit
[12] = molecular target: monomeric streptavidin variant mSA2; test: fluorescent binding curve, labeled mSA2 in 50% urine, 4 h; quadratic fit
[13] = molecular target: monomeric streptavidin variant mSA2; test: fluorescent binding curve, labeled mSA2 in 50% blood serum, 4 h; quadratic fit
streptavidin [14] = molecular target: T1, streptavidin; test: sandwich assay: SA in 50% urine, biotin-HRP/TMB detection
Method: as §2, §3

streptavidin [15] = molecular target: T1, streptavidin; test: fluorescent binding curve, labeled SA in 50% urine, 4 h; quadratic fit
streptavidin [16] = molecular target: T1, streptavidin; test: sandwich assay, SA in 50% blood serum, detection with biotin-HRP and TMB
Method: as §2, §3

streptavidin [17] = molecular target: T1, streptavidin; test: fluorescent binding assay, labeled SA in 50% urine on thin film, 4 h exposure
[18] = molecular target: monomeric streptavidin variant mSA2; test: fluorescent binding curves, labeled mSA2 in 50% urine or 50% blood serum, 4 h
[19] = molecular target: monomeric streptavidin variant mSA2; test: fluorescent binding assay, labeled mSA2 in 50% blood serum on thin film, 4 h exposure
Method: as §1, with “After 1 hour, films were thoroughly rinsed with water for 10 seconds (a time determined to be sufficient to remove unbound molecules from the film, see FIG. 33, dried under filtered airflow, and immediately analyzed for fluorescent signal.” left out
(§4) To evaluate how the apparent size-based diffusion properties translated to biosensing capabilities, binding curves were measured using SA and mSA2 solutions in buffer. Binding curves were fit with a quadratic model that is a function of three parameters: the average MFI per binding event a, the total concentration of binding sites [P]T, and the apparent dissociation constant K_{d,app} describing the binding equilibrium between analyte and binding sites within the thin film.

[20] = molecular target: monomeric streptavidin variant mSA2; test: fluorescent binding assay, labeled mSA2 in 50% urine on thin film, 4 h exposure
Method: as §1, with “After 1 hour, films were thoroughly rinsed with water for 10 seconds (a time determined to be sufficient to remove unbound molecules from the film, see FIG. 33, dried under filtered airflow, and immediately analyzed for fluorescent signal.” left out
as §4

streptavidin [21] = molecular target: T1, streptavidin; test: fluorescent binding assay: Alexa Fluor 647-labeled streptavidin applied to the thin film; the sheet names the film 4xSP25k, the legend 4xSP30k
Method: as §1, with “Films were incubated in a sealed chamber saturated with water vapor at room temperature to prevent to prevent drying of the applied fluorescent samples.” left out

B1: 1xSP25k thin film (1x rcSso7d.SA-PNIPAM conjugate, 25 kDa PNIPAM) (designed binder)
chain: MGSIHHHHHHSSGLVPRGSHMCATVKFTYQGEEKQVDISKIKIVARDGQYIDFKYDEGGGAYGYGWVSEKDAPKELLQMLEKQ
modifications: maleimide end-functionalized PNIPAM (25 kDa) on the N-terminal Cys; film lightly crosslinked with glutaraldehyde
[1]
  limit of detection (LOD): 290 nM
[2]
  [P]T (total concentration of accessible binding sites): 3.1 µM
[3]
  Calculated Density (density of binding sites within a cross-sectional area of the film): 48
  Calculated Ratio (film thickness x [P]T relative to the 1xSP25k thin film): 1

B2: 2xSP25k thin film (2x rcSso7d.SA-PNIPAM conjugate, 25 kDa PNIPAM) (designed binder)
chain: MGSSHHHHHHSSGLVPRGSHMCATVKFTYQGEEKQVDISKIKIVARDGQYIDFKYDEGGGAYGYGWVSEKDAPKELLQMLEKQGGGGSGGGGSMATVKFTYQGEEKQVDISKIKIVARDGQYIDFKYDEGGGAYGYGWVSEKDAPKELLQMLEKQGG
modifications: maleimide end-functionalized PNIPAM (25 kDa) on the N-terminal Cys; film lightly crosslinked with glutaraldehyde
notes: Two rcSso7d.SA repeats joined by a (G4S)2 linker in one chain
[1]
  limit of detection (LOD): 200 nM
Streptavidin [4]
  binding result: binds
[2]
  [P]T (total concentration of accessible binding sites): 3.3 µM
[3]
  Calculated Density (density of binding sites within a cross-sectional area of the film): 43
  Calculated Ratio (film thickness x [P]T relative to the 1xSP25k thin film): 0.9

B3: 3xSP30.3k thin film (3x rcSso7d.SA-PNIPAM conjugate, PNIPAM Mn 30.3 kDa) (designed binder)
chain: MGSSHHHHHHSSGLVPRGSHMCATVKFTYQGEEKQVDISKIKIVARDGQYIDFKYDEGGGAYGYGWVSEKDAPKELLQMLEKQGGGGSGGGGSMATVKFTYQGEEKQVDISKIKIVARDGQYIDFKYDEGGGAYGYGWVSEKDAPKELLQMLEKQGGGGSGGGGSMATVKFTYQGEEKQVDISKIKIVARDGQYIDFKYDEGGGAYGYGWVSEKDAPKELLQMLEKQGG
modifications: maleimide end-functionalized PNIPAM (Mn 30.3 kDa) on the N-terminal Cys; film lightly crosslinked with glutaraldehyde
Streptavidin [5]
  [P]T (total concentration of binding sites): 0.23 nM
Streptavidin [6]
  Kd: 30 µM
Streptavidin [7]
  Kd: 40 µM
[8]
  Kd: 20 µM
Streptavidin [9]
  Limit of Detection: 1800 nM
Streptavidin [10]
  LOD: 87 nM
[11]
  Kd: 29 µM
[12]
  [P]T (total concentration of binding sites): 16 nM
[13]
  [P]T (total concentration of binding sites): 5.7 nM
Streptavidin [14]
  LOD: 28 nM
Streptavidin [15]
  [P]T (total concentration of binding sites): 0.27 nM
Streptavidin [16]
  LOD relative to rcSso7d.SA monolayer: 2 fold
Streptavidin [17]
  Limit of Detection: 1100 nM
[18]
  LOD relative to rcSso7d.SA monolayer: 2 orders of magnitude lower
[19]
  Limit of Detection: 25 nM
[20]
  Limit of Detection: 12 nM

B4: 4xSP25k thin film (4x rcSso7d.SA-PNIPAM conjugate, 25 kDa PNIPAM) (designed binder)
chain: MGSSHHHHHHSSGLVPRGSHMCATVKFTYQGEEKQVDISKIKIVARDGQYIDFKYDEGGGAYGYGWVSEKDAPKELLQMLEKQGGGGSGGGGSMATVKFTYQGEEKQVDISKIKIVARDGQYIDFKYDEGGGAYGYGWVSEKDAPKELLQMLEKQGGGGSGGGGSMATVKFTYQGEEKQVDISKIKIVARDGQYIDFKYDEGGGAYGYGWVSEKDAPKELLQMLEKQGGGGSGGGGSMATVKFTYQGEEKQVDISKIKIVARDGQYIDFKYDESGGAYGYGWVSEKDAPKELLQMLEKQ
modifications: maleimide end-functionalized PNIPAM (25 kDa) on the N-terminal Cys; film lightly crosslinked with glutaraldehyde
notes: Four rcSso7d.SA repeats joined by (G4S)2 linkers in one chain
[1]
  limit of detection (LOD): 140 nM
[2]
  [P]T (total concentration of accessible binding sites): 3.7 µM
[3]
  Calculated Density (density of binding sites within a cross-sectional area of the film): 62
  Calculated Ratio (film thickness x [P]T relative to the 1xSP25k thin film): 1.31
Streptavidin [21]
  binding result: binds
